Data published in PMC9430589.

Tests used:
Test in all cases: EMSA
Conditions in all cases: EMSA: 20 mM Tris-HCl pH 8.0, 1 mM MgCl2, 20 mM KCl, 10 mM Na phosphate pH 8.0, 10% glycerol, 500 nM heparin, 1 nM RNA, 37 C 1 h (PNPase: TMK, 50 mM Tris-HCl pH …)
[1] = molecular target: T1, RhlB (DEAD box RNA helicase) (Deinococcus radiodurans R1) (UniProt Q9RXH8)
T1 sequence: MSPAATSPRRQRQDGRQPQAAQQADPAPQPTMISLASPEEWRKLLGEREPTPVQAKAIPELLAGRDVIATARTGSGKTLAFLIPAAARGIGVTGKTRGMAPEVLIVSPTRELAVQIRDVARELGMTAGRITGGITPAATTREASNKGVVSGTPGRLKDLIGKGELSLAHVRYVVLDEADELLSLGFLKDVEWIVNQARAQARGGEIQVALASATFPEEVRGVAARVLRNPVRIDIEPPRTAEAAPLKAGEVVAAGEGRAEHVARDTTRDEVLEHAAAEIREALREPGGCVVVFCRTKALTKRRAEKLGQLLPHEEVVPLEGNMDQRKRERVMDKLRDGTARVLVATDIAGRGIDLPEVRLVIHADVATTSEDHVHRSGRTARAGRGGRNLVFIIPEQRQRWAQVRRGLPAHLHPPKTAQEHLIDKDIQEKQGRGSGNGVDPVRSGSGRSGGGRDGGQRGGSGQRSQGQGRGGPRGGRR

[2] = molecular target: T2, RpsA (ribosomal protein S1) (Deinococcus radiodurans R1) (UniProt Q9RSY6)
T2 sequence: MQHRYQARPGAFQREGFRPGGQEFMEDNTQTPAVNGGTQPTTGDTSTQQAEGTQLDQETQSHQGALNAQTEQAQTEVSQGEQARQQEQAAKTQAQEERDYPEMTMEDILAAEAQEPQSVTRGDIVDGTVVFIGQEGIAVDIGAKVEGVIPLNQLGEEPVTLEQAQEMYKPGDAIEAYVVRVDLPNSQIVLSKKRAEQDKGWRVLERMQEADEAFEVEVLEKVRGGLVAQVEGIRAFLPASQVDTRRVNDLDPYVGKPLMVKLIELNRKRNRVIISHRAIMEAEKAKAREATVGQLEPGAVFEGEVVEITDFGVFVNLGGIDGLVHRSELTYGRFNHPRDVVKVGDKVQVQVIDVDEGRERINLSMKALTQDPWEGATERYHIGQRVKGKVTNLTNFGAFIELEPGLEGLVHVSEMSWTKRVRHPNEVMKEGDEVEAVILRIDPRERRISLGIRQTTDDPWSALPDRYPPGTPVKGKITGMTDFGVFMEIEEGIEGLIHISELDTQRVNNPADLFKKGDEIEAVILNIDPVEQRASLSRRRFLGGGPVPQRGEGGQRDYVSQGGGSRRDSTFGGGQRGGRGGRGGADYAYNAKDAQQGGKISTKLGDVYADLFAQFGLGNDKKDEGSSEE

[3] = molecular target: T3, Rho transcription termination factor (Deinococcus radiodurans R1) (UniProt P52153)
T3 sequence: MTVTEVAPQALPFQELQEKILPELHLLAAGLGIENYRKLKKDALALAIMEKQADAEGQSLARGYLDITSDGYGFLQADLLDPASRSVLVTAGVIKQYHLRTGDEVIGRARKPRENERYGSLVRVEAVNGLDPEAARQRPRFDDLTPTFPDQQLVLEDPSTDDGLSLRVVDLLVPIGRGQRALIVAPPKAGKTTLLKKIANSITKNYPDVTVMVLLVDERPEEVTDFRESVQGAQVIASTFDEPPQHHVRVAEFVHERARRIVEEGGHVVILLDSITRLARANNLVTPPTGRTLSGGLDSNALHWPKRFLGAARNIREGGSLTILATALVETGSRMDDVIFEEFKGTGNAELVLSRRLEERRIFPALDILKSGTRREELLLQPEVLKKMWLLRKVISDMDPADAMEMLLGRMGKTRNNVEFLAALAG

NNNGNNNNNGNNNNNGNNNNNGNN [8-oxoG x2 24-mer (random N, degenerate)]
Kd ([1]; 8-oxoG at positions 16, 22): 355 nM

NNNGNNNNNGNNNNNGNNNNNGNN [8-oxoG x1 24-mer (random N, degenerate)]
Kd ([2]; 8-oxoG at position 16): 1710 nM
Kd ([1]; 8-oxoG at position 16): 383 nM
Kd ([3]; 8-oxoG at position 16): 1880 nM

NNNGNNNNNGNNNNNGNNNNNGNN [Ctrl 24-mer (random N, degenerate)]
Kd [2]: 5440 nM
Kd [1]: 3010 nM
Kd [3]: 3940 nM

NNNGNNNNNGNNNNNGNNNNNGNN [8-oxoG x4 24-mer (random N, degenerate)]
Kd ([1]; 8-oxoG at positions 4, 10, 16, 22): 341 nM

NNNGNNNNNGNNNNNGNNNNNGNN [8-oxoG x3 24-mer (random N, degenerate)]
Kd ([1]; 8-oxoG at positions 10, 16, 22): 351 nM
